# Measured values: the DeepSol protein solubility set
# Test: soluble on expression in E. coli; label from the status in PepcDB or PDB records
row,Sequence,soluble on expression in E. coli
1,MSLDDHTRDPTVKAPDGNPSGWRTDGQWEHETLRRAVVHGVRLYNSGEFHESHDCFEDEWYNYGRGNTESKFLHGMVQVAAGAYKHFDFEDDDGMRSLFRTSLQYFRGVPNDYYGVDLLDVRTTVTNALSDPSALHGWQIRLDGEYPTCRPEDIEFAESLEHEGHHHHHH,soluble
2,MGSDKIHHHHHHAAIIFAFLYFTNNHKTDLESTISEQWNKITTFFSNDFSLPDTMSKLSTDNYKHEAGSRWSQNSASVYIASTDKTIVKAYQTALANWNATGSFTFNIISDKASADITAKDYSDVNSQAAGLAETETNAVTNRMSHVDVKLNRYYLLDASYGYSFDRIVHTAEHELGHAIGLDHDDKETSVMASSGSYNGIQTVDITAVKKLYAN,not soluble
3,AKVVCVLYDDPINGYPTSYARDDLPRIDKYPDGQTLPTPKAIDFTPGALLGSVSGELGLRKYLESQGHELVVTSSKDGPDSELEKHLHDAEVIISQPFWPAYLTAERIAKAPKLKLALTAGIGSDHVDLQAAIDNNITVAEVTYCNSNSVAEHVVMMVLGLVRNYIPSHDWARNGGWNIADCVARSYDVEGMHVGTVAAGRIGLRVLRLLAPFDMHLHYTDRHRLPEAVEKELNLTWHATREDMYGACDVVTLNCPLHPETEHMINDETLKLFKRGAYLVNTARGKLCDRDAIVRALESGRLAGYAGDVWFPQPAPNDHPWRTMPHNGMTPHISGTSLSAQTRYAAGTREILECYFEGRPIRDEYLIVQGGGLAGVGAHSYSKGNATGGSEEAAKYEKLDA,soluble
4,MGQSFSSSFNAKQTSSSTPQKSTKTPTCSDPRSPSQDIERTPIQVKTVENDENGSSESSTTKADKPRKTSLRQKMFARKKNMNSETDE,not soluble
5,PVPPLPEHGGKVRFGLIPEEFFQFLYPKTGVTGPYVLGTGLILYLLSKEIYVITPETFSAISTIGFLVYIVKKYGASVGEFADKLNEQKIAQLEEVKQASIKQIQDAIDMEKSQQALVQKRHYLFDVQRNNIAMALEVTYRERLHRVYREVKNRLDYHISVQNMMRQKEQEHMINWVEKRVVQSISAQQEKETIAKCIADLKLLSKKAQAQPVM,soluble
6,MAHHHHHHMSIYIQLTHDLSGTVTAVTIGDWILGILKEKNIQEYEVFFKKFLHIYQKQDKDSECNNRSEIFSLLLSASDFVFETLVETKKNNKIKVIIDNKESVKSYNEFYKEVEEYFVILISILQLEFKSVEELNNATNNFIKAIKNYNEFPELRLKILQLLYNSFNVNFSFRFPTFIAILQFCSQNNIFHNMLPYIKYIDDWIKEWNISTREKRHIYLIISQELKKLKKYEESYEHLKKHIYYYDNEHKDILNHPNSINASIELIVDAININNNIYFHEIINLHAIQNLQFIPQHQPLFDLLLIFYKYTINEFLVFKNKHGSDFFNKYNIDIQTCESKIYLLSIISLFNDHKVQNIQFISKQLNISVVQIENILVAAIGSGVIDAKIDQINQTVHMKTTILRNFDDENWKQLNNQITKYINNVQKILELTKHANK,not soluble
7,MKIGVFDSGVGGFSVLKSLLKARLFDEIIYYGDSARVPYGTKDPTTIKQFGLEALDFFKPHEIELLIVACNTASALALEEMQKYSKIPIVGVIEPSILAIKRQVEDKNAPILVLGTKATIQSNAYDNALKQQGYLNISHLATSLFVPLIEESILEGELLETCMHYYFTPLEILPEVIILGCTHFPLIAQKIEGYFMGHFALPTPPLLIHSGDAIVEYLQQKYALKNNACTFPKVEFHASGDVIWLERQAKEWLKL,soluble
8,MKLSIVIVNYRVPYFLEQCLLSVRKSAQGIDTEVWVVDNNSGDGSVEYLQSRFPEVHFVANEENVGFSRANNQAIRLSKGQYVLLLNPDTLIGESTLRTVVDFMDSKPNAGGLGVKMLNGHGRFLPESKRGFPSPWVSFCKLSGLNRLFPHSSRFNRYHLSYLSRDEVHKVEVLSGAFMLMRREALDKVGLLDERFFMYGEDIDLSYRLILGGYDNYYYPTPILHYKGESSSVSDVKYLRSFYGAMGLFFDKYYRNRMNPLLHGLINVVIKARTALALMLRSLRKVPAAEKPAKIFYWHPSEGEAAISAYHDRSHILINTDEVTCDRLLLTMEKLADRKHTFHLTNDTTKRVISP,not soluble
9,GPGSMEGISEEQRQREEAEIRERDRKRQQEKEDYERRLAEAKAEEERKRREEEQLRLEEEKRKKRQEEEWKRLGSDAIQDLPPVPPPVAEEGALDMWYLDDETSQPPLSTASLKPGRKVGAPVITMKALRELGVVLFRVSMSDFSVVRQIIKEREYKHTDEVKISQTAKDDSFLERWYQEHYTEDEQFRVVMDGSFFLDIRSKQDEWIRVHVKAGDLVVLPAGIYHRATLDEDDYVALYRGFQDAPRFVPVKRSDSRADSNRVRLAYLMSLKKGDVATQNGFL,soluble
10,MGHHHHHHSHMFIASKKSYFEAVYRSTVSSHSEEFWKSDDPVYFTQYKKQCNRLPNAYLGTLHSASKYSENFRHYVATFSNSPLDFPQSVFNERNPCEYSVPYLDSALQCSAKTLVGCSVSTTERNEYEVCKEATRCFKDAMSHKVLKVFLSNLSWFLKGHYKSKQAFLEPFQKQLILHSFMFVASIKCPETTTKLFDEFKFLLDMLYFDNTDLLTFLQKSPAFLIPRRHGKTWIVTAIISMLLTSVDDLHIGYVAHQKHVSLAVFLEISNILLAWFPRKNIDIKKENGVILYSHPGKKSSTLMCATCFNKNVSVI,not soluble
11,SNAWGLSVERSTYFLAPADRHYLADYARQAEDAWRREGAAGAERFRKELSAKEDTWVALVGPHLESLGSTPLSAEESSHLTFMRKLDWPMSRRLQDELPYVSIEFPGHPEQGRLVIQLPERLLPG,soluble
12,MGSDKIHHHHHHMTHQNSPLFLKSALRLYNRASFKASHKVIEEYSTSFSLSTWLLSPRIRNDIRNLYAVVRIADEIVDGTAHAAGCSTAKIEEILDAYEIAVLAAPQQRFNTDLVLQAYGETARRCDFEQEHVIAFFASMRKDLKANTHDPDSFTTYVYGSAEVIGLLCLSVFNQGRTISKKRLEIMQNGARSLGAAFQKINFLRDLAEDQQNLGRFYFPKTSQGTLTKEQKEDLIADIRQDLAIAHDAFPEIPVQARIGVISAYLLFQKLTDRIEATPTADLLRERIRVPLHIKLSTLARATMKGLSMSIYRKNS,not soluble
13,MPPPLPYDAMRSVWTDTAAPAMATAPLAGHADCDVAIVGAGITGLSAALHLAERGLRACVLEARDPGWGASGRNGGQVIPGIKHDPDEILARHGRERGEPLLHMVGTAADTVFDLIDRYGLDLVQAQIRLAAGERLDRVVPADLQPSGHAIELRVYAEDPVRFIPSPGTLAVFELPQGPGVRTETGYHAGNAVSPHYDPMIAKIIVHGADRAQAIARAEQALADTEIAGVKTNLPFLARALAFEPWRQGRLHTGIVARTLAEPAPAALTALEHHHHHH,not soluble
14,GQNHHEVVKFMDVYQRSYCHPIETLVDIFQEYPDEIEYIFKPSCVPLMRCGGCCNDEGLECVPTEESNITMQIMRIKPHQGQHIGEMSFLQHNKCECRPKKD,soluble
15,HHHHHHAIAENLYFQSGRYRIRVATGAWLFSGSYNRVQLWLVGTRGEAELELQLRPARGEEEEFDHDVAEDLGLLQFVRLRKHHWLVDDAWFCDRITVQGPGACAEVAFPCYRWVQGEDILSLPEGTARLPGDNALDMFQKHREKELKDRQQIYCWATWKEGLPLTIAADRKDDLPPNMRFHEEKRLDFEWTLKAGALEMALKRVYTLLSSWNCLEDFDQIFWGQKSALAEKVRQCWQDDELFSYQFLNGANPMLLRRSTSLPSRLVLPSGMEELQAQLEKELQNGSLFEADFILLDGIPANVIRGEKQYLAAPLVMLKMEPNGKLQPMVIQIQPPSPSSPTPTLFLPSDPPLAWLLAKSWVRNSDFQLHEIQYHLLNTHLVAEVIAVATMRCLPGLHPIFKFLIPHIRYTMEINTRARTQLISDGGIFDKAVSTGGGGHVQLLRRAAAQLTYCSLCPPDDLADRGLLGLPGALYAHDALRLWEIIARYVEGIVHLFYQRDDIVKGDPELQAWCREITEVGLCQAQDRGFPVSFQSQSQLCHFLTMCVFTCTAQHAAINQGQLDWYAWVPNAPCTMRMPPPTTKEDVTMATVMGSLPDVRQACLQMAISWHLSRRQPDMVPLGHHKEKYFSGPKPKAVLNQFRTDLEKLEKEITARNEQLDWPYEYLKPSCIENSVTI,soluble
16,MDQFECINVADAHQKLQEKEAVLVDIRDPQSFAMGHAVQAFHLTNDTLGAFMRDNDFDTPVMVMCYHGNSSKGAAQYLLQQGYDVVYSIDGGFEAWQRQFPAEVAYGA,soluble
17,GMRSNRVTQHPPLQLSLPVHLPDDETFTSYYPAAGNDELIGALKSAASGDGVQAIYLWGPVKSGRTHLIHAACARANELERRSFYIPLGIHASISTALLEGLEQFDLICIDDVDAVAGHPLWEEAIFDLYNRVAEQKRGSLIVSASASPMEAGFVLPDLVSRMHWGLTYQLQPMMDDEKLAALQRRAAMRGLQLPEDVGRFLLNRMARDLRTLFDVLDRLDKASMVHQRKLTIPFVKEMLRL,soluble
18,MDGALLIDKPKGITSTEVVERVKEKLKARKAGHTGTLDPIATGLLIILINKATRFSQFFIGMPKTYRFTVKFGAETDTYDAQGKVVETYEGELNCDKLKEVLNEFRGEILQTPPPFSAKKIKGRRAYELARKGKKVELKPVKITVYSLELLSCNPREKEAEFLAEISSGGYVRSLAYDIGKKLGIGGYMKELRRLKIDEISVEEAVSLEEFLSSENPEEYVLPVDTLFRVIPEVRLNTFEAGKILQGKRILIKNYDYEGLVKIYEDSKFIGIGELKGGVLSPKRLLV,soluble
19,MLRDTFANTLKDALKARDARRTSTVRLIQAAVKDRDIANRGVGKDPVSDEDIMQILTKMVKQREESATIYEGAGRPELAAQEREEIVIIKEFMPEEIPAEKVRELCQAVISETGASGLRDMGKCMNALKERYPGQIDFAKASGVVKDLLK,not soluble
20,AHHHHHHGSVRDMEFGNLKPGVENSVCLSAEDLLNTVLSVINSTKARGAYVKIFGKDMEDNYLLEMLVDGSRILAIECSYVQAKKKVVGEEAIKKLAELVELPLIVSVYPLDDNQFRLILANNLEVYSQTPAVPLSSVFKKGATRTIESAIEEAKEEKEEEIQKIMKKTEEIVTEEKKKKEEKKRSSNRNTKRKQN,soluble
21,GPGSMLATFFGRRAEPEFKVVCDPESIVFPVDFDAPDYPYEQAFEEADAYVRKLPTRGVVPVSDVLRLQFYSLFKQATEGDINEDVKQPSMLRDWEGYWKVYGWRKCRGMTRERARDLYTDLLDLQIRKHCSFVWGAPSGEDRWAAFYDGVRIIRNLPKGGYYLPDSLRAHFYALYKQALVGNLSDFQKTPAAFSEKYKWLRSRPSKAGFDQMRYDEWAALKGMSCEKAKRMYCKDIFKSAAMCGYVWAPPGTADHLKVIGDQTSAKTLKKRTDADEHAERIAGATHLTMEEAMDAVGVHLSMVERLTMHSFTKKEQTAAARTAEEAAGRKKREEKAEVKRRGVAGSHVDLNKGMAFARPKAEESTEATVTEKTEETEAKEDAERRLEAQGTDKDPQSVCNLCGSFAKDIASDAEAPEKVKESGAAAAAAKDCTAASTSPAPVPKLQASAKVAEASKILPSKSEPVLKKEPAVKGTSKGAKSSHQAKNGAKKGPAGKRTKAN,soluble
